The target in assay [1] is MHV68 gL-gH fusion protein (gL-Linker-gH-Linker-His6) (murine gammaherpesvirus 68 (MHV68)).
The target is the same in assay [2]. Nature of the assay: ELISA; MHV68 gL-gH fusion protein coated at 2.5 μg/ml in PBS on Maxisorp plates; dimeric soluble murine Eph-Fc proteins 2 h at room temperature in 1% BSA in PBS; detected with ProteinG-HRP; four-parameter dose-response fit. (In an ELISA, binding on a coated surface is turned into a signal by an enzyme label.)

One may read the EC50 as the concentration that produces a half-maximal response. Low values mean higher potency in that assay, high ones lower potency in that assay. As to “recombinant soluble murine EphA4-Fc (from UniProt Q03137 20-547) (Fc fusion)”, the reduction of MHV68 ORF59-GFP infection of the murine endothelial cell line SVEC4-10 after pre-incubation of virions with 100 nM homodimerized mEphA4-Fc in assay [1] came out at 25%. In assay [2], this molecule showed a concentration giving a half-maximal response (EC50) of 3.6 nM.

B1: recombinant soluble murine EphB3-Fc (Fc fusion)
chain: LEETLMDTKWVTSELAWTSHPESGWEEVSGYDEAMNPIRTYQVCNVRESSQNNWLRTGFIWRREVQRVYVELKFTVRDCNSIPNIPGSCKETFNLFYYEADSDVASASSPFWMENPYVKVDTIAPDESFSRLDAGRVNTKVRSFGPLSKAGFYLAFQDQGACMSLISVRAFYKKCASTTAGFALFPETLTGAEPTSLVIAPGTCIANAVEVSVPLKLYCNGDGEWMVPVGACTCATGHEPAAKESQCRACPPGSYKAKQGEGPCLPCPPNSRTTSPAASICTCHNNFYRADSDSADSACTTVPSPPRGVISNVNETSLILEWSEPRDLGGRDDLLYNVICKKCRGSSGAGGPATCSRCDDNVEFVPRQLGLTERRVHISHLLAHTRYTFEVQAVNGVSGKSPLPPRYAAVNITTNQAAPSEVPTLHLHSSSGSSLTLSWAPPERPNGVILDYEMKYFEKSKGIASTVTSQKNSVQLDGLQPDARYVVQVRARTVAGYGQYSHPAEFETTSERGSGAQQLQEQLPL
In assay [1], B1 registered an inhibition of MHV68 ORF59-GFP infection of human fibroblasts (HFF) and endothelial cells (TIME) after pre-incubation of virions with 100 nM homodimerized mEphB3-Fc of 30%; a reduction of MHV68 ORF59-GFP infection of NIH 3T3 murine fibroblasts after pre-incubation of virions with a concentration series of soluble mEphB3-Fc, up to 100 nM homodimerized protein of 40%. Moreover, the EC50 in assay [2] stood at 2.3 nM.
